Laboratory results as given in patent US20230250157A1 (published 2023).

Key:
Experiment in all cases: ELISA
[1] = target: SARS-CoV-2 Omicron BA.2 RBD (SARS-CoV-2 Omicron BA.2)
[2] = target: SARS-CoV-2 Omicron BA.1 RBD (SARS-CoV-2 Omicron BA.1)
SARS-CoV-2 Beta RBD = SARS-CoV-2 Beta RBD (SARS-CoV-2 Beta)
SARS-CoV-2 Delta RBD = SARS-CoV-2 Delta RBD (SARS-CoV-2 Delta)

Measured: EC50

B1: M8a-30 (antibody, V domains shown)
VH: QVHLQQSGPELVKPGASVKISCKASGYGFSSSWMNWVKQRPGKGLEWIGRIYPGDGDTNYNDKFQGKATLTADRSSSTAYMHLTSLTSADSAVYFCARSLLYSFDYWGQGTTLTVSS
VL: DVVVTQTPLSLPVSFGDQVSISCRSSQSLAGSYGHTYLSWYLHKSGQSPQLLIYGISNRFSGVPDRFSGSGSGTDFTLKISTIKPEDLGMYYCLQGTHQPLTFGAGTKLELK
> 10 µg/mL: [1] | [2] | SARS-CoV-2 Beta RBD

B2: M8a-11 (antibody, V domains shown)
VH: EVQLQQSGPELVKPGASVKIPCKASGYTFTDYNMDWVKQSHEKSLEWIGEIDPNNGDTIYNQKFKGKASLTVDKSSSTAYMELRSLTSEDTAVYYCAKRGYYGSSLWWYFDVWGTGTTVTVSS
VL: DIQMTQSSSSFSVSLGDRVTITCKASEDIYIRLAWYQQRPGNAPRLLISNAISLETGVPSRFSGSGSGKDYTLSITSLQTEDVATYYCQQYWSTPWTFGGGTKLEIK
> 10 µg/mL: all assays above

B3: M8a-7 (antibody, V domains shown)
VH: QAYLQQSGAEMVRPGASVKMSCKASGYTFNNYNMHWVKQTPSQGLEWIGGFYPGNDDTAYSQKFKGKATLTVDKSSSTAFMHLSSLTSEDSAVYFCARSLGRYYAMDYWGQGTSVTVSS
VL: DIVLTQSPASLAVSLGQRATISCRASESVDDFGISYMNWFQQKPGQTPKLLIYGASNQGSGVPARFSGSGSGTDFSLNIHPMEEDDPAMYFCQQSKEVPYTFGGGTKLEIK
> 10 µg/mL: all assays above

B4: M8a-29 (antibody, V domains shown)
VH: EVQLQQSVAELVRPGASVKLSCTASGFNIKNTYMHWVKQRPEQGLEWIGRIDPSIDHTRYAPKFQGKAVITAFTSSNTAYLQLSSLTSEDTAIYYCAREGGGNYPYYYAIDYWGQGTSVTVSS
VL: DIVMTQAAFSNPVTLGTSASISCRSTKSLLHSNGITYLYWYLQKPGQSPQLLIYQMSNLASGVPDRFSSSGSGTDFTLRISRVEAEDVGVYYCAQNLELPYTFGGGTKLEIK
> 10 µg/mL: all assays above

B5: M8a-25 (antibody, V domains shown)
VH: EVQLQQSVAELVRPGASVKLSCTASGFNIKNTYMHWVKQRPEQGLEWIGRIDPSIDHTRYAPKFQGKAVITAFTSSNTAYLQLSSLTSEDTAIYYCAREGGGNYPYYYAIDYWGQGTSVTVSS
VL: DIQMTQSSSSFSVSLGDRVTITCKASEDIYIRLAWYQQRPGNAPRLLISNAISLETGVPSRFSGSGFGKDHTLSITSLQTEDVATYYCQQYWSTPWTFGGGTKLEIK
> 10 µg/mL: all assays above

B6: M8a-15 (antibody, V domains shown)
VH: QVQLQQSGPELARPGASVKLSCRASGYTVTSFGLSWMKQRTGQGLEWIGEIYPTSKNTYYNDKFRTKATLTADKSSSTAYMELRSLTSEDSAVYFCVLYDYFDYWGQGTTLTVSS
VL: QIVLTQSPAIMSASPGEKVTISCSASSSVSYMYWYQQKTGSSPKPWIYRTSNLASGVPVRFSGSGSGTSYSLTISSMEAEDAATYYCQQYQSYPRTFGGGTKLEIK
> 10 µg/mL: all assays above
